B1: ADI-15577 (antibody, V domains shown)
VH: QVQLVQSGAEVKKPGSSVKVSCKASGGTFGSYAISWVRQAPGQGLEWMGGTIPIFGTADHAQKFQGRVTITADKSTSTAYMELSSLRSEDTAVYYCARGVFRVGCSDTSCLKNYYGTDVWGQGTTVTVSS
VL: QSVLIQPASVSGSPGQSITVSCTGSSGDVGAYKYVSWYQQHPGRGPKLIIYDVSARPSGISDRFSGSKSGNTASLTISGLQAEDEADYYCSSYSSSSTLVVFGGGTKVTVL
notes: IgG
B2: ADI-15593 (antibody, V domains shown)
VH: QVQLVQSGGGLVRPGGSLRLSCAASGFMFSTYSMNWLRTVPGKGLEWVSSISGSSSHIYYADSVKGRFTISRDNTKNSLYLQMNSLRPEDTALYYCARYFGDYSGLGNYYYYGMDVWGQGTTVTVSS
VL: DIVMTQSPVSLPVTPGEPASISCRSSQSLLHSNGNNYLDWYLQRPGQSPQLLIYLGSNRASGVPDRFSGSGSGTDFTLRISRVEAEDVGVYYCMQALQTPRFGGGTKVEIK
notes: IgG; also called Antibody Number 160
B3: ADI-15582 (antibody, V domains shown)
VH: QVQLVQSGGEVKKPGASVKVSCKASGYTFISYGITWVRQAPGQGPEWMGWISPYNGDTNYAQKLQGRVTMTTDTSTTTAYMELRSLRSDDTAIYYCARRYDILTGGGWFDSWGQGTLVTVSS
VL: DIVMTQSPSSLSASVGDRVTINCRASQSIISYLNWYQQKPGKAPELLIYAASSLQSGVPSRFSGSGSGTEFTLTISSLQPEDFATYYCQQSYSTPLSFGPGTKVEIK
notes: IgG
B4: ADI-15651 (antibody, V domains shown)
VH: EVQLVESGPALVKPTQTLTLTCTVSGGVERMSVSWVRQPPGKALEWLARIDWDDDKYYNTFLKTRLTISKGTSKNEVVLTMTNMDPEDTAIYYCARTNRYDKSGYYLYYLDYWGQGTLVTVSS
VL: DIQMTQSPSSLSASVGDKVTITCRASQTIASYVNWYQQHPGKAPKLLIYLASRLQSGAPSRFSGSGSGTDFTLTILNLQPEDFATYYCQQSYSSFFTFGPGTKVEIK
notes: IgG
B5: ADI-15646 (antibody, V domains shown)
VH: EVQLLESGGGLIQPGGSLRLSCGASGFTVTGNYMHWVRQAPGKGLEWVSVIYAGSSTYYADSVRGRFTISRDKARNTLFLQMNRLRAEDTAVYYCARAGVVGEDRSGWYGPDYFHGLDVWGQGTTVTVSS
VL: ETTLTQSPGTLSLSPGERATLSCRASQSIRNNYLAWYQQKPGQPPRLLIYGESRRATGIPGRFSGSGSGTDFTLTISSLEPEDFAVYYCQQYGGSPYTFGQGTKVDIK
notes: IgG; also called Antibody Number 210
B6: ADI-15641 (antibody, V domains shown)
VH: QVQLVESGGGVVQPGRSLRVSCAASGFDFSNYAMHWVRQAPGKGLEWVALISYDGNNKVYADSVKGRFTVSRDNSKNTLYLQMNSLRPEDTAVIYCAKDGYLAPDFWGQGTLVTVSS
VL: QSVLTQPASVSGSPGQSIIISCTGTSSDVGEYDYVSWYQHHPHKAPKLIIYEVSNRPSGVSNRFSGSKSGNTASLTISGLQAEDEADYYCSSYTSSSGQAFGTGTKVTVL
notes: IgG; also called Antibody Number 205
B7: ADI-15658 (antibody, V domains shown)
VH: EVQLVESGGGLVQPGRSLRLSCVTSGFGFDDYAMHWVRQAPGKGLEWVSGIGWNSGGIGYADSVKGRFSISRDNAKNSLYLQMNSLRPEDTAFYYCVKDGTPIAVAGYFEYWGQGTLVTVSS
VL: SYELTQPPSASGTPGQRVTISCSGGRSNIGNNYVYWYQQLPGTAPKLLIYRHDQRPSGVPDRFSGSKSGTSASLAINGLRSEDEADYFCAVWDDSLSCYVFGAGTKLTVL
notes: IgG
B8: ADI-15659 (antibody, V domains shown)
VH: QVQLVQSGAEVKKPGSSVKVSCKASGGTFSTYGISWVRQAPGQGLEWMGRVIPMFGTATYAQKFQDRVTITADKATSTAYMELNSLRSDDTAVYYCARCPPFEGVRPPWFDPWGQGTLVTVSS
VL: SYELTQPPSVSVAPGRTAKITCGGYNIGNKRVHWYRQRPGQAPVLIVYDNADRPSGIPERFSGSNSGNTATLTISNVAAGDEADYHCQVWETSSDHPVFGGGTKLTVL
notes: IgG; also called Antibody Number 223
B9: ADI-15660 (antibody, V domains shown)
VH: EVQLVQSGTEVKKPGESLKISCKASGYSSFPNWIGWVRQMPGKGLEYMGSIFPDDSNTRYSPSFRGLVAISADKSLRTAYLQWSSLKASDSAIYYCARGPFPHYFDSWGQGTLVTVSS
VL: NFMLTQPHSVSESPGKTVTISCTRSSGSIARNYVQWYQQRPGSSPTTVIYEDDQRPPGVPDRFSGSIDSSSNSASLTISGLQTEDEADYYCQSYDPTNQNVFGTGTKLTVL
notes: IgG
B10: ADI-15645 (antibody, V domains shown)
VH: EVQLLESGGGLVQPGGSLRLSCAASGFTFSSYAMSWVRQIPGKGLEWVSTINISGGSTYYADSVKGRFTISRDNSRDTVFLQMNGLRAEDTALYYCARGYHIDWFDFWGQGTLVTVSS
VL: DIVLTQTPSSVSASVGDRVTITCRASQDIGSWLAWYQQKPGKAPQFLIYAASQLQSGVPSRFSGSGSGTDFTLTISSLQPEDFATYYCQQAKSLPRTFGGGTKVDIK
notes: IgG
B11: ADI-15667 (antibody, V domains shown)
VH: EVQLVESGGGLVQPGGSLRLSCAASGFTFSDFSMSWVRQAPGKGLEWVSLIKSSGYAYYADSVRGRFTISRDNSKNTLYLQMNSLRAEDTAIYYCAKDADFWSGAAYNGGYNFDSWGQGTLVTVSS
VL: DIQMTQSPATLSVFPGDRATLSCRASQSVGSNLAWYQQKPGQAPRLLIFGASTRATGIPARFSGSGSGTEFTLTISSLQSEDFAVYYCQQYHNWPPLTFGGGTKVDIK
notes: IgG
B12: ADI-15640 (antibody, V domains shown)
VH: QVQLVESGPALVKPTQTLTLTCAFSGFSLTTRGMSVSWIRQPPGKALEWLARIDWDDDKYYSTSLKTRLTISKDTSKNQVVLTMSNMDPVDTATYYCARASLYDSGGYYLFFFDYWGQGTLVTVSS
VL: DIVMTQSPSSLSASVGDRVTITCRASQSIGSYLNWYQQKPGKVPKLLIYAASNLQGGVPSRFRGSGSGTDFTLTISNLQPEDFASYYCQLSYSSLWTFGQGTKVEIK
notes: IgG; also called Antibody Number 204
B13: ADI-15556 (antibody, V domains shown)
VH: QVQLVQSGAEVKKPGSSVKVSCKASGGNVNIYGISWVRQAPGQGLEWMGGIIPIYDTTKYAQKFQDRVTITADKSTSTAYMELSSLRSEDTAVYFCARDLDYDILTGYSVNYYYYGMDVWGQGTTVTVSS
VL: QSVLTQPPSVSGAPGQRVTISCTGSSSNIGAGYDVHWYQQLPGTAPKLLIYGNINRPSGVPDRFSGSKSGTSASLAITGLQAEDEADYYCQSCDSSLSGWVFGGGTKLTIL
notes: IgG
B14: ADI-15588 (antibody, V domains shown)
VH: EVQLVESGPGLVKPSETLSLICRVFGGSVRRGDYNWNWIRQPPGKGLEWIGYIDYSGTTKYNPSLKSRVTISEDTSRNQFSLELRSVTAADTAMYYCARDVGSTPYNYYGMDVWGQGTTVTVSS
VL: EIVLTQSPGTLSLSPGERATLSCRASQTIKNNYLAWYQQKPGQAPRLLMYGVSSRPTGIPDRFSGSGSGTDFSLTIDRLEPEDFAVYYCQQFGRSPELTFGGGTKVEIK
notes: IgG; also called Antibody Number 155
B15: ADI-15006 (antibody, V domains shown)
VH: EVQLVESGPGLVKPSGTLSLTCTVSGDSMSDYYWSWIRQSPGRGLEWLGYIYYDGSTNYNPSLKGRGTISIDTSKSQFSLTLSSVKAADTAVYYCARGKYYDRGGYYLFYLDYWGQGILVTVSS
VL: DIRLTQSPSSLSASVGDRVTITCRASQTIASYVNWYQQKPGKAPKLLIYAASSLQDGVPSRFSGSGSGTDFALTISSLQPEDFAIYFCQQSYSTPIFTFGPGTKVEIK
notes: IgG; also called Antibody Number 125

What was measured:
[1] = biological target: RSV F protein of subtype B strain 18537, on virus (respiratory syncytial virus subtype B …, UniProt P13843 26-574); assay: cell-based or functional assay
[2] = biological target: RSV F protein of subtype A strain A2, on virus (respiratory syncytial virus subtype A …, UniProt P03420 26-574); assay: cell-based or functional assay
[3] = biological target: T1, prefusion-stabilized RSV F ectodomain (DS-Cav1), subtype B (respiratory syncytial virus subtype B); assay: BLI, IgG on sensor
T1 construct: extracellular domain; also called Prefusion subtype B
Method: (§1) IgG binding to DS-Cav1 and FA FP was determined by BLI measurements using a FortéBio Octet HTX instrument (Pall Life Sciences). […] Data was analyzed using the ForteBio Data Analysis Software 7. The data was fit to a 1:1 binding model to calculate an association and dissociation rate, and KD was calculated using the ratio kd/kₐ.

[4] = biological target: T2, postfusion RSV F ectodomain (F ΔFP), subtype A (respiratory syncytial virus subtype A, UniProt P03420 26-109; P03420 147-524); assay: BLI, IgG on sensor
T2 construct: extracellular domain; also called Postfusion subtype A
Method: as §1

[5] = biological target: T3, postfusion RSV F ectodomain, subtype B (respiratory syncytial virus subtype B); assay: BLI, IgG on sensor
T3 construct: extracellular domain; also called Postfusion subtype B
Method: as §1

Binder	Neut IC50 (ug/ml) subtype B [1] [µg/mL]	Neut IC50 (ug/ml) subtype A [2] [µg/mL]	Kd [3] [nM]	Kd [4] [nM]	Kd [5] [nM]
B1	> 10	> 10	4.66	0.779	0.679
B2	> 10	> 10	3.95	0.507	0.761
B3	6.74	2.22	2.32	0.385	0.295
B4	3.29	1.6	2.08	0.23	0.453
B5	> 10	0.846	2.62	0.318	3.18
B6	0.483	0.184	0.136	0.161	0.136
B7	> 10	6.25	1.81	0.18	0.169
B8	> 10	> 10	11.1	1.13	3.66
B9	> 10	17.3	0.89	0.098	0.105
B10	> 10	> 10	4.6	0.367	0.352
B11	0.048	0.039	0.333	0.231	0.208
B12	4.82	> 10	1.49	0.169	0.196
B13	0.081	0.055	2.2	0.247	0.19
B14	0.234	0.094	0.427	0.353	0.953
B15	> 10	19.1	4.2	0.243	3.61
